# Source: paper PMC4565553
# Experiments:
# Experiment in all cases: BLI; label-free in vitro kinetics assay; FLAG-tagged IPS1 CARD (2.5 μg/mL) immobilised on anti-FLAG probes; RLR CARDs at 0.001–100 μM in 1x Kinetics Buffer (ForteBio) with BSA, pH 7.0; 60 min association, 60 min dissociation; Kd = half-maximal steady-state binding, Km = half-maximal initial binding rate, one-site fit, 3 replicates; no ubiquitin
# [1] = molecular target: B. floridae IPS1 CARD (Branchiostoma floridae)
# [2] = molecular target: human IPS1 CARD (1–92), FLAG-tagged (human) (UniProt Q7Z434)
# [3] = molecular target: mutant human IPS1 CARD (Arg66,67—Glu), FLAG-tagged (human) (UniProt Q7Z434)
molecule,measurement,setting,value
B. floridae RIG-I CARD1+2 (domain or fragment),fold lower Kd than the negative control (human CASP9 CARD),[1],5.4 fold
same,fold lower Km than the negative control (human CASP9 CARD),[1],6.1 fold
human MDA5 CARD1 (1–96) (domain or fragment) MSNGYSTDENFRYLISCFRARVKMYIQVEPVLDYLTFLPAEVKEQIQRTVATSGNMQAVELLLSTLEKGVWHLGWTREFVEALRRTGSPLAARYMN,Kd,[2],813 nM
same,Km (half-maximal initial binding rate),[2],0.55 µM
human RIG-I CARD1 (1–87) (domain or fragment) MTTEQRRSLQAFQDYIRKTLDPTYILSYMAPWFREEEVQYIQAEKNNKGPMEAATLFLKFLLELQEEGWFRGFLDALDHAGYSGLYE,fold increase in Kd against wild-type IPS1 CARD,[3],34.6 fold
same,fold increase in Km against wild-type IPS1 CARD,[3],43.8 fold
same,Kd,[2],33.1 nM
same,Km (half-maximal initial binding rate),[2],0.0389 µM
same,fold stronger binding than human caspase9 CARD (negative control),[2],70 fold
"mutant human RIG-I CARD1 (Glu66,67—Arg) (domain or fragment) MTTEQRRSLQAFQDYIRKTLDPTYILSYMAPWFREEEVQYIQAEKNNKGPMEAATLFLKFLLELQRRGWFRGFLDALDHAGYSGLYE",fold increase in Kd against wild-type RIG-I CARD1,[2],10 fold
same,fold increase in Km against wild-type RIG-I CARD1,[2],6.9 fold
